Laboratory results from the nanobody polyreactivity screen of Harvey et al. (2022).

Experiment: yeast display, Sf9 membrane polyspecificity reagent, FACS + sequencing; frameworks hold sequencing errors
Outline: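 In a synthetic yeast display library (Saccharomyces cerevisiae BJ5465), nanobody expression was induced with galactose for 36–48 hours. FACS gates were set low and high (top ~1%) using anti-HA fluorescence for expression and streptavidin fluorescence for binding of the Sf9 membrane reagent. Each polyreactivity label is drawn from the gate of origin.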

Row | Sequence | polyreactivity (PSR sort gate)
1 | QVQLVESGGGLVQAGGSLRLICAASGITFAWYAMGWYRQAPGKERELVAAIDDRGGSTYYADSVKWRFTISRDNAKNTVYLQMYSLKPEDTAVYYCNADTPSYEPYRLDYLGQGTQVTVSS | low polyreactivity
2 | QVQLVESGGGLVQAGGSLRLICAASGITFNKYSMGWYRQAPGKERELVAAISSRGCSTYYADSVKGRFTISRDNAKNTVYLQMNSLKPEYTAVYYCAAERGTTYAYDYWGQGTQVTVSS | high polyreactivity
3 | QVQLVESGGGLVQAGGSLRLICAASGITFTGYAMGWYRQAPGKERELVAAITRRGGRTYYADSVKGRFTISRDNAKNTVYLQMNSLKPEDTAVYYCARDNGSPYHYYYWGQGTQVTVSS | high polyreactivity
4 | QVQLVESGGGLVQAGGSLRLICAASGITFYYYAMGWYRQAPGKERELVAAITFTGGSTYYADSVKGRFTISRDNAKNTVYLQMNSLKPEDTAVYYCNRLGPLGDQQQYDYWGQGTQVTVSS | low polyreactivity
5 | QVQLVESGGGLVQAGGSLRLICAASGLIFWGYAMGWYRQAPGKERELVAAISSSGGSTYYADSVKGRFTISRDNAKNTVYLQINSLKPEDTAVYYCNADYTYYPGYDYWGQGTLVTVSS | low polyreactivity
6 | QVQLVESGGGLVQAGGSLRLICAASGLTFSGYVMAWYRQAPGKERELVAAISLSGGSTYYADSVKGRFTISRDNAKNTVYLQMNSLKPEDTAVYYCAASTRFYNSYRREYWGQGTQVTVSS | high polyreactivity
7 | QVQLVESGGGLVQAGGSLRLICAASGLTFWVYTMGWYRQAPGKERELVARITSRGASTYYADSVKGRFTISRDNAKNTVYLQMNSLKPEDTAVYYCATDRYRIYPDYDYWGQGTQVTVSS | high polyreactivity
8 | QVQLVESGGGLVQAGGSLRLICAASGLTFYVYAMGWYRQAPGKERELVAAISQRGGSTYYADSVKGRFKISRDNAKNTVYLQMNSLNPEDTAVYYCAKYTVQYAISHYDYWGQGTQVTVSS | high polyreactivity
9 | QVQLVESGGGLVQAGGSLRLICAASGNTFKDYTMVWYIQAPRKERDLVASINSGGSTNYADSVKGRFTISRDNAKNTVYLQMNSLKPEDTAVYYCAKRAWSDYNPIDYWGQGTQVSVSS | low polyreactivity
10 | QVQLVESGGGLVQAGGSLRLICAASGNTFNVYAMVWYRHAPGKERELVAAITLSGGSTYYADSVKGRFTISRDNAKNTVYLQMNSLKPEDTAVYYCNAEDDGTDYDYWGQGTQVTVSS | low polyreactivity
11 | QVQLVESGGGLVQAGGSLRLICAASGNTFTGYVMGWNRQAPGKEREYVAAIRSGGSTYYADSVKGRFTISRDNAKNTVYLQMNSLKPEDTSVYYCAKCVTPYRTSAYGYWGQGTQVTVSS | high polyreactivity
12 | QVQLVESGGGLVQAGGSLRLICAASGRIFATYTMGWYRQAPGKERELVAAISRNGGSTYYADSVKGRFTISRDYAKNTVYLQMNSLKTEDTAVYYCNAERRDDRGFDYWGQGTQVTVSS | low polyreactivity
13 | QVQLVESGGGLVQAGGSLRLICAASGRIFDKNAMGWYRQAPGKERELVAAINRSGGRTYYADSVKGRFTISRDNAKNTVYLQMNSLKPEDTAVYYCAADTQGSRYDYWGQGTQVTVSS | high polyreactivity
14 | QVQLVESGGGLVQAGGSLRLICAASGRIFDPYAMGWYRQAPGKERELVASISWSGGRTYYADSVKGRFTISRDNAKNTVYLQMNSLKPEDTAVYYCAARQWYRYKVRFDYWGQGTQVTVSS | high polyreactivity
15 | QVQLVESGGGLVQAGGSLRLICAASGRIFEKYAMGWYRQEPGKERELVAAISSSGGSTYYADSVKGRFTISRDIAKNTVYLQMNSLKPDDTAVYYCAKLVVVPFYYWGQGTQVSVSS | high polyreactivity
16 | QVQLVESGGGLVQAGGSLRLICAASGRIFFIYAMGWYRQAPGKERELVAGINRTGGSTYYADSVKGRFTISRDNAKNSVYLHMNSLKPEDTAVYYCAAVSYYASDYRYDYWGKGTQVTVSS | low polyreactivity
17 | QVQLVESGGGLVQAGGSLRLICAASGRIFGIYAMGWYRQAPGKERELVARITGGGSTNYADSVKGRFTISRDNPKNTVYLQMNSLNPEDTAVYYCAANVRRIVGNITRYDYWGQGTQVTVSS | low polyreactivity
18 | QVQLVESGGGLVQAGGSLRLICAASGRIFGRNAMGWYRQARGKERELVAGISSGGTTDYADSVKGRFTISRDNAKNTVYLQMNSLKPEDTAVYYCNVDNDDSAFYAIFVLYDYWGEGTQVTVSS | low polyreactivity
19 | QVQLVESGGGLVQAGGSLRLICAASGRIFHVNAMGWYRQAPGKERELVAAISTSGGRTYYADSVKGRFTISRDNAKNTVYLQMNSLKPEDTAVYYCAAVSRAPGLRYDYWGQGTQVTVSS | high polyreactivity
20 | QVQLVESGGGLVQAGGSLRLICAASGRIFLYYAMGWYRQAPGKERELVADINSGGNTTYADSVKGRFTISRDNAKNTVYLQMNSLKPEDTAVYYCAADPVFDLWEFVLDYGYDYWGQGTQVTVSS | low polyreactivity
21 | QVQLVESGGGLVQAGGSLRLICAASGRIFNVYAMGWYRQAPGKETELVASITSAGSTYYADSVKGRFTISRDNAKNTVYLQMNSLKPEDTAVYYCNAESYSTWSFGHRYEYDYWGQGTQVTVSS | low polyreactivity
22 | QVQLVESGGGLVQAGGSLRLICAASGRIFPDYDMGWYRQAPGKERELVAAITQRGGSTYADSVKGRFTISRDNAKNTVYLQMNSLKPEDTAVYYCNARWQRPYDYWGQGTQVTVSS | low polyreactivity

Row | Sequence | polyreactivity (PSR sort gate)
23 | QVQLVESGGGLVQAGGSLRLICAASGRIFRGNAMGWYRQAPGKERELVAAISSGGSTNYADSVKGRFTISRDNEKNTVYLQMNSLKPEDTAVYYCAASRVRSYFGRYYWGQGTQVTVSS | high polyreactivity
24 | QVQLVESGGGLVQAGGSLRLICAASGRIFRIYAIGWYRQAPGKERELVARITYSGGSTYYADSVKGRFTISRDNAKNSVYLLMNSLKPEETAVYYCAADWLGYQYGYWGQGTQVTVSS | low polyreactivity
25 | QVQLVESGGGLVQAGGSLRLICAASGRIFRPYAMGWYRQAPGKEREFVATIRFTTGRTYYADSVKGRFTISRDNAKNTVYLQMNSLKPEDTAVYYCAADFAFVNYAKISYTTHDYWGQGTQVTVSS | high polyreactivity
26 | QVQLVESGGGLVQAGGSLRLICAASGRIFSTYAMGWYRQAPGKERELVAAINKIGGSTYYADSVKGRFTISRDNAKNTVYLQMNSLKPEDTAVYYCAADAPYYPVRRYYYWGQGTQVTVSS | low polyreactivity
27 | QVQLVESGGGLVQAGGSLRLICAASGRIFVINAMGWYRQAPGKERELVAAITGGGSTNYADSVKGRFTISRDNAKNPVYLQMNSLKPEDTAVYYCAADYRPVRRFYYSRYDDWGQGTQVTVSS | low polyreactivity
28 | QVQLVESGGGLVQAGGSLRLICAASGRIFYYNAMGWYRQAPGKERELVAVITRSGGRTFYADSVKGRFTISRDNAKNTGYLQMNSLKPEDTAVYYCAARYRYYPVTTRGYYWGQGTQVTVSS | high polyreactivity
29 | QVQLVESGGGLVQAGGSLRLICAASGRIIGKNAMGWYRQARGKERELVAAIRYNGGRTYYADSVKGRFTISRDNAKNTVYLQMNSLKPEDTAVYYCAARWRSWRYKYDYWGQGTQVTVSS | high polyreactivity
30 | QVQLVESGGGLVQAGGSLRLICAASGRILDIYALGWYRQAPGKERELVASISGSGSSTYYADSVKGRVTISRDNAKNTVYLQMNSLKPEDSAVYYCNAARSQGYEYATYGYWGQGSQVTVSS | low polyreactivity
31 | QVQLVESGGGLVQAGGSLRLICAASGRILPLYAMGWYRQAPGKERELVADITGSDGSTYYADSVKGRFTISRDNAKNTVYLQMNSLKPEDTAVYYCATDAIGRTPSDPWDYYYWGQGTQVTVSS | low polyreactivity
32 | QVQLVESGGGLVQAGGSLRLICAASGRIYIKNAMGWYRQAPGKERELVAAISSGSSTYYADSVKGRFTISRDNAKNSVYLQMYSLKPEDTAVYYCAAPDYRNGVRYPLDYWGQGTQVTVSS | low polyreactivity
33 | QVQLVESGGGLVQAGGSLRLICAASGRIYWTYAMGWYRQAPGKERDLVAAISSGGSTNYADSVKGRFTISRDNAKNTVYLQMNSLKPEDTAVYYCAADRWYREYDYWGQGTQVTVSS | low polyreactivity
34 | QVQLVESGGGLVQAGGSLRLICAASGRTFEDNAMGWYRQAPGKERELVAAISSDGSRNYADSVKGRFTISRDNAKNTVYLQMNSLKPEDTAVYYCNATVYWPYDWGTSDYWGQGTQVTVSS | low polyreactivity
35 | QVQLVESGGGLVQAGGSLRLICAASGRTFENYAMGWYRQAPGKERELVAAISKSGGSTYYADSVKGRFTISRDNAKNPVYLQMNSLKPEDTAVYYCNARPGQSGARFGYWGQGTQVTVSS | high polyreactivity
36 | QVQLVESGGGLVQAGGSLRLICAASGRTFGGYAMGWYRQAHGKERELVAAISDRGTSTYYADSVKGRFTISRDNAKYTVYLQMNSVKPEDTAVYYCAASSARRRMDYWGQGTQVTVSS | high polyreactivity
37 | QVQLVESGGGLVQAGGSLRLICAASGRTFGTNTMGWYRQAPGKERELVATISSSSGSTYYADSVKGRFTISRDNAKNTVYLQMNSLKPEDSAVYYWAALYRWGYKRYDYWGQGTQVTVSS | high polyreactivity
38 | QVQLVESGGGLVQAGGSLRLICAASGRTFKDYAMGWNRQAPGKERELVADISWSGGDTYYADSVKGRFTISRDNAKNTVYLQMNSLKPEDTAVYYCAADWSWCDGEDYHFEYDYWGQGTQVTVSS | low polyreactivity
39 | QVQLVESGGGLVQAGGSLRLICAASGRTFLPNAMGWYRQAPGKERELVAVITSAGSTYYADSVKGRFTISRDNAKNTVYLQRNSLKPEDTAVYYCSADYLDYDLGDPPPRYYYWGQGTQVTVSS | low polyreactivity
40 | QVQLVESGGGLVQAGGSLRLICAASGRTFNRYAMGWYRTAPRTERELVAVINSASSTNYADSVKGRFTISRDNAKNTVYLQMYSLKPEDTAVYYCNADGYRWYWYTGPMDYWGQGTKVTVSS | high polyreactivity
41 | QVQLVESGGGLVQAGGSLRLICAASGRTFPGYAMGWYRPAPGKDRELVAAISNSGGRTYYADSVKGRFTISRDNAKKTVYLQMTSLKREDTAVYYCNATTDNGSNKRYYYWGQGTQVTVSS | high polyreactivity
42 | QVQLVESGGGLVQAGGSLRLICAASGRTFRGYTMGWYRQAPGKERELVAAITWSGGSTYYADSVKGRFTISRDNAKNTVYLQMNSLKPEDTAVYYCAATKYLSFLYDYWGQGTLVTVSS | high polyreactivity
43 | QVQLVESGGGLVQAGGSLRLICAASGRTFRRNAMGWYRQAPGKERELVAGIRSSGGSTYYADSVKGRFTISRDNAKNTVYLQMNSLKTEDTAVYYFAAAYRSASFPYDYWGQGTQVTVSS | high polyreactivity
